What was measured:
LacI-CFP-Nup107 = target: T1, LacI-CFP-Nup107 (human, UniProt P57740 1-925); experiment: LacI/LacO array recruitment in cells
T1 sequence: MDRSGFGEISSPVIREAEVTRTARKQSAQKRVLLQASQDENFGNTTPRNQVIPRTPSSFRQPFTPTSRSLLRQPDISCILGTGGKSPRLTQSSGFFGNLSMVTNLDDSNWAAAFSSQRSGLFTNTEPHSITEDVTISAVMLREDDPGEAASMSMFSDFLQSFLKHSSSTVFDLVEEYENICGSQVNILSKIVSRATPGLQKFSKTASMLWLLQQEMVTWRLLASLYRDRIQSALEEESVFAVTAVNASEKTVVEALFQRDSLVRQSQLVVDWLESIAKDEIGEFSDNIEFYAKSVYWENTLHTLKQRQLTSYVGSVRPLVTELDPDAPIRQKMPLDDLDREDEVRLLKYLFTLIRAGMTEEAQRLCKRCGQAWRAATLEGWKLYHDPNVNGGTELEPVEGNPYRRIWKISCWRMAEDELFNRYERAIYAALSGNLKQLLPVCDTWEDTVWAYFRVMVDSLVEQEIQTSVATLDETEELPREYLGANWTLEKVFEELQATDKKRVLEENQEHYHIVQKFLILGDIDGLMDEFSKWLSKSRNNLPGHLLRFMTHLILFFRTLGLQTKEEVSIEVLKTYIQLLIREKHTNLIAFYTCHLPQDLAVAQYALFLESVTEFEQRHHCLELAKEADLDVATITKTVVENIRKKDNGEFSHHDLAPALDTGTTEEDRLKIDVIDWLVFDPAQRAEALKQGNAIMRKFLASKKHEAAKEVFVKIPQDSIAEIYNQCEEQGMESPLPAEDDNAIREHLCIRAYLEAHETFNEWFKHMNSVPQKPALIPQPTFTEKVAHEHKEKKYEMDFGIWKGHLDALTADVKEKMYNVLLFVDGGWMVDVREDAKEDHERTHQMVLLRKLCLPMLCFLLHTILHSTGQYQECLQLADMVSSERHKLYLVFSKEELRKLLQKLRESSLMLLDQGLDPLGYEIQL

LacI-CFP-Nup153 = target: T2, LacI-CFP-Nup153 (human, UniProt P49790 1-1475); experiment: LacI/LacO array recruitment in cells
T2 sequence: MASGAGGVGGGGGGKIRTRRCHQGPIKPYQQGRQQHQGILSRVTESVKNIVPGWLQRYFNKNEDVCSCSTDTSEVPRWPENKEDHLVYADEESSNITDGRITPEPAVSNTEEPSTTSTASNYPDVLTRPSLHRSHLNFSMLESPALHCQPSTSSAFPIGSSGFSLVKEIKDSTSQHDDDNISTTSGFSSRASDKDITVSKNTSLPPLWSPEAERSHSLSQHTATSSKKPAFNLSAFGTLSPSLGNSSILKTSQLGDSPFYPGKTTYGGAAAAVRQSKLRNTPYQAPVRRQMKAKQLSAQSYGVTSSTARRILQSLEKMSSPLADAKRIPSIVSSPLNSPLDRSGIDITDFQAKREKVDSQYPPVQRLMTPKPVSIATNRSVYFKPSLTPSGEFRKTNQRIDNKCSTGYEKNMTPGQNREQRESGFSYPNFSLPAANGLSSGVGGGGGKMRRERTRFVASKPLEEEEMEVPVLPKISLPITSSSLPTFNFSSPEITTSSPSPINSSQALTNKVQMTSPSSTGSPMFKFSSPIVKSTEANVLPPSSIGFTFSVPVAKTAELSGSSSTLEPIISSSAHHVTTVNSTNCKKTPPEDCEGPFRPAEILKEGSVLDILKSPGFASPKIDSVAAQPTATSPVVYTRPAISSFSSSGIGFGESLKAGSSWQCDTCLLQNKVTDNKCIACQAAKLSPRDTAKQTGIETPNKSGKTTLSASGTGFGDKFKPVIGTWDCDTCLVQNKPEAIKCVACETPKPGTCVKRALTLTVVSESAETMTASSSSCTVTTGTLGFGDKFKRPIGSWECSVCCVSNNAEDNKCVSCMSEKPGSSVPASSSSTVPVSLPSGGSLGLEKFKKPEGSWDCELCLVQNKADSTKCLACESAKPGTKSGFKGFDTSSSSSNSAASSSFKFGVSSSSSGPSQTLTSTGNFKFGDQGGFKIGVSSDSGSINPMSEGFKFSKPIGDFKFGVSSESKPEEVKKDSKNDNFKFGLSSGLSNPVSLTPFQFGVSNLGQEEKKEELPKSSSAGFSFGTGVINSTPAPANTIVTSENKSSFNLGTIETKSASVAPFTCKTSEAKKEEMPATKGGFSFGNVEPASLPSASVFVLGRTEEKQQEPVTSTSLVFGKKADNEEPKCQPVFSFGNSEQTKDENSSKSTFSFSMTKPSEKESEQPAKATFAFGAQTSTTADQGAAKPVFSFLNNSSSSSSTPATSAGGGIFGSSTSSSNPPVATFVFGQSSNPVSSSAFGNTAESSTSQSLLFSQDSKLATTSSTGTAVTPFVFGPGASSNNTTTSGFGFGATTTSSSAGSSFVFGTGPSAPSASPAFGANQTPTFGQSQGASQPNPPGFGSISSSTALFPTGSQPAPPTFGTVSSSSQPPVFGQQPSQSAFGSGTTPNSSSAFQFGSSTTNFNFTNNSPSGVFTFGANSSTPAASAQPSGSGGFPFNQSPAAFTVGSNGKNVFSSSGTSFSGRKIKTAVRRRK

B1: Nup93 (endogenous) (natural protein)
chain: MDTEGFGELLQQAEQLAAETEGISELPHVERNLQEIQQAGERLRSRTLTRTSQETADVKASVLLGSRGLDISHISQRLESLSAATTFEPLEPVKDTDIQGFLKNEKDNALLSAIEESRKRTFGMAEEYHRESMLVEWEQVKQRILHTLLASGEDALDFTQESEPSYISDVGPPGRSSLDNIEMAYARQIYIYNEKIVNGHLQPNLVDLCASVAELDDKSISDMWTMVKQMTDVLLTPATDALKNRSSVEVRMEFVRQALAYLEQSYKNYTLVTVFGNLHQAQLGGVPGTYQLVRSFLNIKLPAPLPGLQDGEVEGHPVWALIYYCMRCGDLLAASQVVNRAQHQLGEFKTWFQEYMNSKDRRLSPATENKLRLHYRRALRNNTDPYKRAVYCIIGRCDVTDNQSEVADKTEDYLWLKLNQVCFDDDGTSSPQDRLTLSQFQKQLLEDYGESHFTVNQQPFLYFQVLFLTAQFEAAVAFLFRMERLRCHAVHVALVLFELKLLLKSSGQSAQLLSHEPGDPPCLRRLNFVRLLMLYTRKFESTDPREALQYFYFLRDEKDSQGENMFLRCVSELVIESREFDMILGKLENDGSRKPGVIDKFTSDTKPIINKVASVAENKGLFEEAAKLYDLAKNADKVLELMNKLLSPVVPQISAPQSNKERLKNMALSIAERYRAQGISANKFVDSTFYLLLDLITFFDEYHSGHIDRAFDIIERLKLVPLNQESVEERVAAFRNFSDEIRHNLSEVLLATMNILFTQFKRLKGTSPSSSSRPQRVIEDRDSQLRSQARTLITFAGMIPYRTSGDTNARLVQMEVLMN
- percent of transfected cells showing colocalization (LacI-CFP-Nup107): 9%
- percent of transfected cells showing colocalization (LacI-CFP-Nup153): 23%

Reference: publication PMC4615246 (Nucleus, 2015)
